Laboratory results from PMC3928670.

What was measured:
[1] = target: McbB/D (Escherichia coli) (UniProt P23184); conditions: cited from earlier work
[2] = target: BcerB, TOMM dehydrogenase (B-protein) from Bacillus cereus 172560W (Bacillus cereus 172560W); test: fluorescence polarisation

Chain of UniProt P23184 (P23184 whole entry, chain 1 of 2): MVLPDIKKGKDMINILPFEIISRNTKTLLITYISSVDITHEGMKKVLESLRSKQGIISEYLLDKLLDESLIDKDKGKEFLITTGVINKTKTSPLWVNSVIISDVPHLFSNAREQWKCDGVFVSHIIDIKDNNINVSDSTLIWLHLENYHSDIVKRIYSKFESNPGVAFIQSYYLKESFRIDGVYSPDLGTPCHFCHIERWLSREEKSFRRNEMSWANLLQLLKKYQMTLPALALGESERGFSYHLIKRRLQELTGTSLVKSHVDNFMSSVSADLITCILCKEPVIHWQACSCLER
Chain of UniProt P23184 (P23186 whole entry, chain 2 of 2, further chain): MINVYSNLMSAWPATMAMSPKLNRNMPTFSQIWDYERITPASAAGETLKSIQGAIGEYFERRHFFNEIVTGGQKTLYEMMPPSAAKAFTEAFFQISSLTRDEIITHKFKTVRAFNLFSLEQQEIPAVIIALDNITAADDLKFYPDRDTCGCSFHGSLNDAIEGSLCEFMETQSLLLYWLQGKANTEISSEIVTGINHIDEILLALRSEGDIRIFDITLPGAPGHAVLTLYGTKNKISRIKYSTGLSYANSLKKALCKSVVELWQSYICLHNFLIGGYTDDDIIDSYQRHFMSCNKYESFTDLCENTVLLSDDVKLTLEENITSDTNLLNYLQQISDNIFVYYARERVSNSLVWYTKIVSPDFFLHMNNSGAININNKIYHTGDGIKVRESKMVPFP

McbC (from UniProt P23185)
Kd [1]: 1800 nM

Balh cyclodehydratase (BalhC/D) from Bacillus sp. Al Hakam (complex)
Kd [2]: 1700 nM
